Results taken from patent publication US12698507B2, “Methods and compositions for conferring and/or enhancing herbicide tolerance using protoporphyrinogen IX oxidase of various cyanobacteria or variant thereof” (FarmHannong Co., Ltd., priority 2019, dated 2026).
Positions count from the first letter of the chain named. Names may count otherwise.

B1: CyPPO19 V165C + A167I + V305M + F360V: variant of CyPPO19 PPO protein (SEQ ID NO: 1) (protein)
chain: MSEVDVAIVGGGLSGLSLAWRLQQSAPQYSVVLLEASDRLGGNITTQTAEGFVWELGPNSFAPTPALLQLIAEVGLQSELIRGDRHLPRYIYWRGQLYPLQPTRPLALATSNLLSPWGKVRAALGALGFVPPYLGSGDESVNSFFRRHLGQEVAERLVAPFVSGCYIGDPQQLSAAAAFRRIAQLEKLGGGLIAGALHLRRQQAPKPKPPTSVQMRPGELGSFKEGLAALPRAIAQQLKAPIHLQTPVQEITPDPKGGYLLRSGEQTWRARSVVLATPAYQTAELVAPFQPAIARVLATIPYPTMACVVLAYPAGLGRSVRPGFGVLIPRSQGIRTLGTIWSSCLFPQRTPAGWQVFTSVIGGATDPDLASLSEEAIVQQVQQDLNRLLDLPAAKARLLGMKVWRRAIPQYMVGYPEQWQQVTHALSQTPGLFLCSNYAEGVALGDRVEHGNRTAAAVAAYLSGGQP
modifications: Synthetic_PPO of Thermosynechococcus elongatus PKUAC-SCTE542 (comprising GenBank No. CP032152.1)
B2: CyPPO19 A167L + V305M + I408R + F360M: variant of CyPPO19 PPO protein (SEQ ID NO: 1) (protein)
chain: B1 chain with C165V, I167L, V360M, I408R
modifications: Synthetic_PPO of Thermosynechococcus elongatus PKUAC-SCTE542 (comprising GenBank No. CP032152.1)
B3: CyPPO19 V165S + A167C + L327T + F360M: variant of CyPPO19 PPO protein (SEQ ID NO: 1) (protein)
chain: B1 chain with C165S, I167C, M305V, L327T, V360M
modifications: Synthetic_PPO of Thermosynechococcus elongatus PKUAC-SCTE542 (comprising GenBank No. CP032152.1)
B4: CyPPO19 V165C + A167C + I408W + F360T: variant of CyPPO19 PPO protein (SEQ ID NO: 1) (protein)
chain: B1 chain with I167C, M305V, V360T, I408W
modifications: Synthetic_PPO of Thermosynechococcus elongatus PKUAC-SCTE542 (comprising GenBank No. CP032152.1)
B5: CyPPO19 A167L + F360M: variant of CyPPO19 PPO protein (SEQ ID NO: 1) (protein)
chain: B1 chain with C165V, I167L, M305V, V360M
modifications: Synthetic_PPO of Thermosynechococcus elongatus PKUAC-SCTE542 (comprising GenBank No. CP032152.1)
B6: CyPPO19 V165S + F360T: variant of CyPPO19 PPO protein (SEQ ID NO: 1) (protein)
chain: B1 chain with C165S, I167A, M305V, V360T
modifications: Synthetic_PPO of Thermosynechococcus elongatus PKUAC-SCTE542 (comprising GenBank No. CP032152.1)
B7: CyPPO19 A167I + V305L + L327T + F360V: variant of CyPPO19 PPO protein (SEQ ID NO: 1) (protein)
chain: B1 chain with C165V, M305L, L327T
modifications: Synthetic_PPO of Thermosynechococcus elongatus PKUAC-SCTE542 (comprising GenBank No. CP032152.1)
B8: CyPPO19 V165S + F360L: variant of CyPPO19 PPO protein (SEQ ID NO: 1) (protein)
chain: B1 chain with C165S, I167A, M305V, V360L
modifications: Synthetic_PPO of Thermosynechococcus elongatus PKUAC-SCTE542 (comprising GenBank No. CP032152.1)
B9: CyPPO19 V305L + L327T + I408W + F360V: variant of CyPPO19 PPO protein (SEQ ID NO: 1); printed 305L in Table 9 (protein)
chain: B1 chain with C165V, I167A, M305L, L327T, I408W
modifications: Synthetic_PPO of Thermosynechococcus elongatus PKUAC-SCTE542 (comprising GenBank No. CP032152.1)
B10: CyPPO19 A167C + F360I: variant of CyPPO19 PPO protein (SEQ ID NO: 1) (protein)
chain: B1 chain with C165V, I167C, M305V, V360I
modifications: Synthetic_PPO of Thermosynechococcus elongatus PKUAC-SCTE542 (comprising GenBank No. CP032152.1)

System: PPO-deficient BT3 E. coli (ΔPPO)
Assay: PPO-inhibiting herbicide tolerance test of PPO variants in E. coli (growth on herbicide-containing LB agar)
Type: cell-based
Conditions: CyPPO19 variants in BT3 (ΔPPO) E. coli; LB agar with 0 to 2,000 μM herbicide, 37° C., dark, 16-20 hours
In short: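 Tolerance was scored against wild-type enzyme: '−' for equal growth, one '+' per 10-fold gain, up to '+++++'. ΔPPO BT3 cells carrying variant plasmids, spotted as a 10-fold dilution series from OD600=0.5, grew 16-20 h at 37° C. in the dark on ampicillin LB agar containing 0 to 2,000 μM herbicide.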

Row | Molecule | tolerance level relative to wild type, Carfentrazone | tolerance level relative to wild type, Flumioxazin | tolerance level relative to wild type, Fomesafen | tolerance level relative to wild type, Oxyfluorfen | tolerance level relative to wild type, Saflufenacil | tolerance level relative to wild type, Sulfentrazone | tolerance level relative to wild type, Tiafenacil
1 | B1 | + (‘+’ per each 10-fold resistance) | ++ (‘+’ per each 10-fold resistance) | + (‘+’ per each 10-fold resistance) | + (‘+’ per each 10-fold resistance) | ++ (‘+’ per each 10-fold resistance) | + (‘+’ per each 10-fold resistance) | ++ (‘+’ per each 10-fold resistance)
2 | B2 | + (‘+’ per each 10-fold resistance) | +++++ (until ‘+++++’ as maximal resistance) | +++ (‘+’ per each 10-fold resistance) | +++ (‘+’ per each 10-fold resistance) | +++++ (until ‘+++++’ as maximal resistance) | +++++ (until ‘+++++’ as maximal resistance) | +++++ (until ‘+++++’ as maximal resistance)
3 | B3 | + (‘+’ per each 10-fold resistance) | ++++ (‘+’ per each 10-fold resistance) | ++ (‘+’ per each 10-fold resistance) | ++ (‘+’ per each 10-fold resistance) | ++++ (‘+’ per each 10-fold resistance) | ++++ (‘+’ per each 10-fold resistance) | ++++ (‘+’ per each 10-fold resistance)
4 | B4 | + (‘+’ per each 10-fold resistance) | ++++ (‘+’ per each 10-fold resistance) | ++ (‘+’ per each 10-fold resistance) | ++ (‘+’ per each 10-fold resistance) | ++++ (‘+’ per each 10-fold resistance) | +++ (‘+’ per each 10-fold resistance) | ++++ (‘+’ per each 10-fold resistance)
5 | B5 | + (‘+’ per each 10-fold resistance) | ++++ (‘+’ per each 10-fold resistance) | ++ (‘+’ per each 10-fold resistance) | + (‘+’ per each 10-fold resistance) | ++++ (‘+’ per each 10-fold resistance) | ++ (‘+’ per each 10-fold resistance) | ++++ (‘+’ per each 10-fold resistance)
6 | B6 | + (‘+’ per each 10-fold resistance) | +++ (‘+’ per each 10-fold resistance) | + (‘+’ per each 10-fold resistance) | + (‘+’ per each 10-fold resistance) | +++ (‘+’ per each 10-fold resistance) | ++ (‘+’ per each 10-fold resistance) | ++++ (‘+’ per each 10-fold resistance)
7 | B7 | + (‘+’ per each 10-fold resistance) | +++++ (until ‘+++++’ as maximal resistance) | +++ (‘+’ per each 10-fold resistance) | +++ (‘+’ per each 10-fold resistance) | ++++ (‘+’ per each 10-fold resistance) | ++++ (‘+’ per each 10-fold resistance) | +++++ (until ‘+++++’ as maximal resistance)
8 | B8 | + (‘+’ per each 10-fold resistance) | ++++ (‘+’ per each 10-fold resistance) | ++ (‘+’ per each 10-fold resistance) | ++ (‘+’ per each 10-fold resistance) | ++++ (‘+’ per each 10-fold resistance) | +++ (‘+’ per each 10-fold resistance) | ++++ (‘+’ per each 10-fold resistance)
9 | B9 | + (‘+’ per each 10-fold resistance) | +++++ (until ‘+++++’ as maximal resistance) | +++ (‘+’ per each 10-fold resistance) | +++ (‘+’ per each 10-fold resistance) | +++++ (until ‘+++++’ as maximal resistance) | +++++ (until ‘+++++’ as maximal resistance) | +++++ (until ‘+++++’ as maximal resistance)
10 | B10 | + (‘+’ per each 10-fold resistance) | ++++ (‘+’ per each 10-fold resistance) | + (‘+’ per each 10-fold resistance) | + (‘+’ per each 10-fold resistance) | +++ (‘+’ per each 10-fold resistance) | ++ (‘+’ per each 10-fold resistance) | ++++ (‘+’ per each 10-fold resistance)
